We go through six molecules from patent US20230059489A1 (Pfizer, published 2023).

For one assay, the target named is T1, mouse FLT3 (mFlt3) (mouse (printed as mFlt3), UniProt Q00342 28-544, limits assumed).
T1 construct: Construct not described
T1 sequence (looked up): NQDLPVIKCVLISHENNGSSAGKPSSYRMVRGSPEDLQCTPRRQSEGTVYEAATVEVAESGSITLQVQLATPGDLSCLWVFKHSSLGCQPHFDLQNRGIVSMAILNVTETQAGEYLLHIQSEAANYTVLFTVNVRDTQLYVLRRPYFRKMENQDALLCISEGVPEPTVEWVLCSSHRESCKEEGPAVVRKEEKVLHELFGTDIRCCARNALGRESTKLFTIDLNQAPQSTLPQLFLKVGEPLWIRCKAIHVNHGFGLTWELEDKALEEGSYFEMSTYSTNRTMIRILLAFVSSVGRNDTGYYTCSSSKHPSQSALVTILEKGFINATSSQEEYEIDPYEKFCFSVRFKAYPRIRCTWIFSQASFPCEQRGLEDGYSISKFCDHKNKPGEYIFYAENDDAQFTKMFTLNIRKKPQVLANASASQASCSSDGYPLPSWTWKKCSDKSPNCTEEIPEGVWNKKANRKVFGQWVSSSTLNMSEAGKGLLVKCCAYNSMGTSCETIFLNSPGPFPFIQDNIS
Kind of assay: SPR, Table 6, IgG format, mFlt3 column; set-up for mFlt3 not described.

The target of another assay is T2, human FLT3 (hFLT3) (human, UniProt P36888 27-543).
T2 construct: also called huFlt3; Fms-Like Tyrosine Kinase 3
T2 sequence (looked up): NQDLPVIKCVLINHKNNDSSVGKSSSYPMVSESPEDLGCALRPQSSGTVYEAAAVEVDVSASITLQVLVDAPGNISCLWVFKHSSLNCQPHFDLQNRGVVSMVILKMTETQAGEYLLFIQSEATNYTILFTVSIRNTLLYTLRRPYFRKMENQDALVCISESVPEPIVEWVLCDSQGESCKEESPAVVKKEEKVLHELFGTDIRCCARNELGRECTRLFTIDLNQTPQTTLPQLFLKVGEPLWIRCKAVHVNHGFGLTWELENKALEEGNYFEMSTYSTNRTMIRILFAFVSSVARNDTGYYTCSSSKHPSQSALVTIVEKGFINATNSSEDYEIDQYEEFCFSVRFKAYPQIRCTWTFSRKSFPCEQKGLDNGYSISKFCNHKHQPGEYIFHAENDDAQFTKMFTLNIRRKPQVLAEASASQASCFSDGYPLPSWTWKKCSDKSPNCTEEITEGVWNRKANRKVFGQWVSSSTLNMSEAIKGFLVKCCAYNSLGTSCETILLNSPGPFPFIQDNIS
Kind of assay: SPR (Biacore T200), 37 C; IgG captured on anti-human Fc, hFLT3 as analyte. As to the method:
All experiments were performed on a Biacore T200 surface Plasmon resonance biosensor (GE Lifesciences, Piscataway N.J.).
The sensor chip preparation was performed at 25° C. with a running buffer of 10 mM HEPES, 150 mM NaCl, 0.05% (v/v) Tween-20, pH 7.4. An anti-human Fc sensor chip was made by activating all flow cells of a Biacore CM4 sensor chip with a 1:1 (v/v) mixture of 400 mM EDC and 100 mM NHS for 7 minutes, at a flow rate of 10 μL/min. An anti-human Fc reagent (Goat Anti-Human IgG Fc, Southern Biotech Catalog #2081-01) was diluted to 30 μg/mL in 10 mM Sodium Acetate pH 4.5 and injected on all flow cells for 7 minutes at 20 μL/min. All flow cells were blocked with 100 mM ethylenediamine in 150 mM Borate buffer pH 8.5 for 7 minutes at 10 μL/min.
The experiments were performed at 37° C. using a running buffer of 10 mM HEPES, 150 mM NaCl, 0.05% (v/v) Tween-20, pH 7.4, 1 mg/mL BSA. FLT3 antibodies were captured from undiluted supernatants onto downstream flow cells (flow cells 2, 3 and 4) at a flow rate of 10 μL/min for 1 minute. Different antibodies were captured on each flow cell. Flow cell 1 was used as a reference surface. Following capture of FLT3 antibodies, analyte (buffer, hFLT3) was injected at 30 μL/min on all flow cells for two minutes. After the analyte injection, dissociation was monitored for 10 minutes followed by regeneration of all flow cells with three 1-minute injections of 75 mM Phosphoric Acid. For each captured FLT3 antibody, the following analyte injections were performed: buffer, 11 nM hFLT3, 33 nM hFLT3, 100 nM hFLT3 and 300 nM hFLT3. Buffer cycles were collected for each captured FLT3 antibody for double-referencing purposes (double-referencing as described in Myszka, D. G. Improving biosensor analysis. J. Mol. Recognit. 12, 279-284 (1999)). The double-referenced sensorgrams were fit globally to a simple 1:1 Langmuir with mass transport binding model.

B1: P7F9 (IgG format) (antibody, V domains shown)
VH: EVQLLESGGGLVQPGGSLRLSCAASGFTFSSYAMSWVRQAPGKGLEWVSAIGGSGGSTYYADSVKGRFTISRDNSKNTLYLQMNSLRAEDTAMYYCARDYYAFSDPAYGGMDVWGQGTLVTVSS
VL: NFMLTQPHSVSESPGKTVTISCTRSSGSIASNYVQWYQQKPGQAPVLVVYDDSDRPSGIPERFSGSNSGNTATLTISRVEAGDEADYYCQVWDSSSDHWVFGGGTKLTVL
notes: IgG format, captured by anti-human Fc
The molecule B1 gave a Kd with mouse FLT3 (mFlt3) of 13.8 nM. Moreover, in the assay with human FLT3 (hFLT3), the Kd turned out to be 12 nM, the koff is 0.0013 s⁻¹, the on-rate constant (kon) is 110000 M⁻¹ s⁻¹ and the t1/2 worked out at 8.9 min.

B2: P4F6 (IgG format) (antibody, V domains shown)
VH: QVQLVQSGAEVKKPGSSVKVSCKASGGTFGSYGISWVRQAPGQGLEWMGGIIPIFGTVTYAQKFQGRVTITADESTRTAYMELSSLRSEDTAVYYCARDSWSGATGASDTWGQGTLVTVSS
VL: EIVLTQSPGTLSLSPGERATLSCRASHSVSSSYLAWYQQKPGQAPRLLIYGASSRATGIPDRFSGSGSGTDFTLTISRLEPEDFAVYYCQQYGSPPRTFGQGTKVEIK
notes: as for B1
Take B2: the affinity with mouse FLT3 (mFlt3), expressed as Kd, was 36.1 nM. Besides, in the assay with human FLT3 (hFLT3), the Kd worked out at 25 nM, the koff was 0.0035 s⁻¹, the kon amounted to 140000 M⁻¹ s⁻¹ and the t1/2 turned out to be 3.3 min.

B3: P5A3 (IgG format) (antibody, V domains shown)
VH: QVQLVQSGAEVKKPGSSVKVSCKASGGTFSSYYIGWVRQAPGQGLEWMGGIIPWFGTANYAQKFQGRVTITADKSTNTAYMELSSLRSEDTAVYYCAADHHDSPSGYTSGGFDVWGQGTLVTVSS
VL: QSALTQPASVSGSPGQSITISCTGTSSDVGGYNYVSWYQQHPGKAPKLMIYEVSKRPSGVPDRFSGSKSGNTASLTVSGLQAEDEADYYCSSYAGSNTVVFGGGTKLTVL
notes: as for B1
The molecule B3 showed a Kd with mouse FLT3 (mFlt3) of 19.3 nM. In the assay with human FLT3 (hFLT3), this molecule showed a Kd of 102 nM, a koff of 0.01 s⁻¹, a kon of 98000 M⁻¹ s⁻¹ and a t1/2 of 1.2 min.

B4: P9B5 (IgG format) (antibody, V domains shown)
VH: EVQLLESGGGLVQPGGSLRLSCAASGFIFASYAMSWVRQAPGKGLEWVSEISSSGGSTTYADSVKGRFTISRDNSKNTLYLQMNSLRAEDTAVYYCARDRVMAGLGYDPFDYWGQGTLVTVSS
VL: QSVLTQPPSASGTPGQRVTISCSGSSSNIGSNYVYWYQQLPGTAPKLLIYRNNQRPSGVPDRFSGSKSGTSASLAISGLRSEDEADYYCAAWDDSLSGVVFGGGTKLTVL
notes: as for B1
In the assay with mouse FLT3 (mFlt3), B4 registered a Kd of 1.5 nM. In the assay with human FLT3 (hFLT3), this molecule registered a Kd of 11 nM, a koff of 0.00047 s⁻¹, an on-rate constant (kon) of 42000 M⁻¹ s⁻¹ and a t1/2 of 24.4 min.

B5: P4C7 (IgG format) (antibody, V domains shown)
VH: QVQLVQSGAEVKKPGSSVKVSCKASGGTFSSYTISWVRQAPGQGLEWMGGIIPAFGIANYAQKFQGRVTITADKSTSTAYMELSSLRSEDTAVYYCAKGGSYSLDYFDIWGQGTLVTVSS
VL: EIVLTQSPGTLSLSPGERATLSCRASQYVSASLLAWYQQKPGQAPRLLIYGASTRATGIPDRFSGSGSGTDFTLTISRLEPEDFAVYYCQQYARSSTFGQGTKVEIK
notes: as for B1
The molecule B5 yielded a Kd with mouse FLT3 (mFlt3) of 402 nM. In the assay with human FLT3 (hFLT3), this molecule had a Kd of 7.7 nM, a koff of 0.0012 s⁻¹, a kon of 160000 M⁻¹ s⁻¹ and a t1/2 of 9.3 min.

B6: P7H3 (IgG format) (antibody, V domains shown)
VH: EVQLLESGGGLVQPGGSLRLSCAASGFTFSSYAMHWVRQAPGKGLEWVSAISGSGGSTYYADSVKGRFTISRDNSKNTLYLQMNSLRAEDTAVYYCARGTRWWWGDAFDHWGQGTLVTVSS
VL: QSVLTQPPSVSVAPGKTARITCGGNNIGSKSVHWYQQKPGQAPVLVIYYDSDRPSGIPERFSGSNSGNTATLTISRVEAGDEADYYCQVWDSSTAWVFGGGTKLTVL
notes: as for B1
As to B6, in the assay with mouse FLT3 (mFlt3), binding was characterised by a dissociation constant (Kd) of 0.9 nM. In addition, in the assay with human FLT3 (hFLT3), the Kd is 2 nM, the koff is 0.0018 s⁻¹, the kon amounted to 990000 M⁻¹ s⁻¹ and the t1/2 worked out at 6.6 min.
